According to article PMC10104851, “SynDLP is a dynamin-like protein of Synechocystis sp. PCC 6803 with eukaryotic features” (Nature Communications, 2023):

What was measured:
[1] = target: SynDLP, the dynamin-like protein of Synechocystis sp. PCC 6803 (Synechocystis sp. PCC 6803); experiment: cryo-EM structure; about 3.0 mg/mL SynDLP in 5 mM MgCl2, 7.5 mM KCl, 20 mM HEPES pH 7.4 (no NaCl), no nucleotide, no membrane; segmented single-particle analysis, C2 symmetry; model of 8 monomers
[2] = target: SynDLP, the dynamin-like protein of Synechocystis sp. PCC 6803 (Synechocystis sp. PCC 6803)
[3] = target: SynDLP_(HPRN-AAAA) (Synechocystis sp. PCC 6803); experiment: SEC; analytical SEC, Superose 6 Increase 3.2/300 in reaction buffer (20 mM HEPES pH 7.4, 150 mM NaCl, 7.5 mM KCl, 5 mM MgCl2, 0.2 mM DTT); 30 µl of 10 µM protein; 7 °C; no nucleotide, no membrane
[4] = target: SynDLP_(HPRN-AAAA) (Synechocystis sp. PCC 6803)
[5] = target: T1, SynDLP (Synechocystis sp. PCC 6803, UniProt P73765, K61A); experiment: continuous regenerative coupled GTPase assay; format: biochemical; settings: P-loop mutant
T1 construct: gene slr0869; full length, C-terminal His tag (pET303-CT/His), E. coli Rosetta-gami 2 (DE3), calculated 93 kDa; oligomer of ~40-50 monomers in solution; model covers aa 1-793, last 19 residues unresolved

[6] = substrate: Nc1nc2c(ncn2[C@@H]2O[C@H](COP(=O)(O)OP(=O)(O)OP(=O)(O)O)[C@@H](O)[C@H]2O)c(=O)[nH]1; experiment: continuous regenerative coupled GTPase assay (PK/LDH, NADH); format: biochemical, Synechocystis sp. PCC 6803; settings: 0.5 µM protein, 20 mM HEPES pH 7.4, 150 mM NaCl, 7.5 mM KCl, 5 mM MgCl2, 0.2 mM DTT, 30 °C, no liposomes
From the text: continuous regenerative coupled GTPase assay (PK/LDH, NADH) on […]

T1 sequence (P73765 entry or part of it K61A): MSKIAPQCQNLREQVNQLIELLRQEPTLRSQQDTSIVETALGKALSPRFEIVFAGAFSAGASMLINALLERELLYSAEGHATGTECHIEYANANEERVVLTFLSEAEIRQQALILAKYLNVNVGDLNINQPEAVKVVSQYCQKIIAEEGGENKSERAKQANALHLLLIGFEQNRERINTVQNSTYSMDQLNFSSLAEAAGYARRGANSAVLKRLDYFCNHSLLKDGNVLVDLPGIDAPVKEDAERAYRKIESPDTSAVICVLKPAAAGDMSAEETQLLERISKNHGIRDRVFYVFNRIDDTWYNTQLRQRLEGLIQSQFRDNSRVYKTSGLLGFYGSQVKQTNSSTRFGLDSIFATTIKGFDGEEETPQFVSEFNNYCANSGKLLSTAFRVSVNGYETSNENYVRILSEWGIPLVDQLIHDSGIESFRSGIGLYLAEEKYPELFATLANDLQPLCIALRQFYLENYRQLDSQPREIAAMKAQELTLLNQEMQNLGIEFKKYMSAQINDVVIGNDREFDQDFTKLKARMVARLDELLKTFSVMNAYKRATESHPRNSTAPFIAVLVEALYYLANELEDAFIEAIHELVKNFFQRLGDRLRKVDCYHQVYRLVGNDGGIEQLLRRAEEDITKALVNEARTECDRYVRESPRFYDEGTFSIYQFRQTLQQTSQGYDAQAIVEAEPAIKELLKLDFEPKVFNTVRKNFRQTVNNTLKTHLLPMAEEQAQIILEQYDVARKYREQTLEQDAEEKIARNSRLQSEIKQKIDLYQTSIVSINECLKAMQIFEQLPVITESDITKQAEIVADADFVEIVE

In the case of “SynDLP, the dynamin-like protein of Synechocystis sp. PCC 6803 (natural protein)”, the stoichiometry N [1] is reported as 40 to 50 monomers and the kcat of GTP hydrolysis (continuous, regenerative, coupled GTPase assay, 0.5 µM protein) [2] is reported as 0.743 s⁻¹.

For SynDLP_(HPRN-AAAA) (natural protein), the stoichiometry N [3] was 2 and the kcat of GTP hydrolysis (continuous, regenerative, coupled GTPase assay, 0.5 µM protein) [4] was 0.283 s⁻¹.

For `Nc1nc2c(ncn2[C@@H]2O[C@H](COP(=O)(O)OP(=O)(O)OP(=O)(O)O)[C@@H](O)[C@H]2O)c(=O)[nH]1` [GTP], the “continuous regenerative coupled GTPase assay” value [5] was “A mutation of a conserved residue in the P-loop (K61A) considerably reduced the GTPase activity”.

B1: SynDLP (Synechocystis sp. PCC 6803 substr. Kazusa) (protein)
chain: MSKIAPQCQNLREQVNQLIELLRQEPTLRSQQDTSIVETALGKALSPRFEIVFAGAFSAGKSMLINALLERELLYSAEGHATGTECHIEYANANEERVVLTFLSEAEIRQQALILAKYLNVNVGDLNINQPEAVKVVSQYCQKIIAEEGGENKSERAKQANALHLLLIGFEQNRERINTVQNSTYSMDQLNFSSLAEAAGYARRGANSAVLKRLDYFCNHSLLKDGNVLVDLPGIDAPVKEDAERAYRKIESPDTSAVICVLKPAAAGDMSAEETQLLERISKNHGIRDRVFYVFNRIDDTWYNTQLRQRLEGLIQSQFRDNSRVYKTSGLLGFYGSQVKQTNSSTRFGLDSIFATTIKGFDGEEETPQFVSEFNNYCANSGKLLSTAFRVSVNGYETSNENYVRILSEWGIPLVDQLIHDSGIESFRSGIGLYLAEEKYPELFATLANDLQPLCIALRQFYLENYRQLDSQPREIAAMKAQELTLLNQEMQNLGIEFKKYMSAQINDVVIGNDREFDQDFTKLKARMVARLDELLKTFSVMNAYKRATESHPRNSTAPFIAVLVEALYYLANELEDAFIEAIHELVKNFFQRLGDRLRKVDCYHQVYRLVGNDGGIEQLLRRAEEDITKALVNEARTECDRYVRESPRFYDEGTFSIYQFRQTLQQTSQGYDAQAIVEAEPAIKELLKLDFEPKVFNTVRKNFRQTVNNTLKTHLLPMAEEQAQIILEQYDVARKYREQTLEQDAEEKIARNSRLQSEIKQKIDLYQTSIVSINECLKAMQIFEQLPVITESDITKQAEIVADADFVEIVE
notes: full length, C-terminal His tag (pET303-CT/His), E. coli Rosetta-gami 2 (DE3), calculated 93 kDa; oligomer of ~40-50 monomers in solution; model covers aa 1-793, last 19 residues unresolved
Work on B1 yielded a Km [6] of 500 ± 40 µM and a kcat [6] of 0.743 ± 0.0167 s⁻¹.

B2: SynDLP (Synechocystis sp. PCC 6803 substr. Kazusa; C777A) (protein)
chain: MSKIAPQCQNLREQVNQLIELLRQEPTLRSQQDTSIVETALGKALSPRFEIVFAGAFSAGKSMLINALLERELLYSAEGHATGTECHIEYANANEERVVLTFLSEAEIRQQALILAKYLNVNVGDLNINQPEAVKVVSQYCQKIIAEEGGENKSERAKQANALHLLLIGFEQNRERINTVQNSTYSMDQLNFSSLAEAAGYARRGANSAVLKRLDYFCNHSLLKDGNVLVDLPGIDAPVKEDAERAYRKIESPDTSAVICVLKPAAAGDMSAEETQLLERISKNHGIRDRVFYVFNRIDDTWYNTQLRQRLEGLIQSQFRDNSRVYKTSGLLGFYGSQVKQTNSSTRFGLDSIFATTIKGFDGEEETPQFVSEFNNYCANSGKLLSTAFRVSVNGYETSNENYVRILSEWGIPLVDQLIHDSGIESFRSGIGLYLAEEKYPELFATLANDLQPLCIALRQFYLENYRQLDSQPREIAAMKAQELTLLNQEMQNLGIEFKKYMSAQINDVVIGNDREFDQDFTKLKARMVARLDELLKTFSVMNAYKRATESHPRNSTAPFIAVLVEALYYLANELEDAFIEAIHELVKNFFQRLGDRLRKVDCYHQVYRLVGNDGGIEQLLRRAEEDITKALVNEARTECDRYVRESPRFYDEGTFSIYQFRQTLQQTSQGYDAQAIVEAEPAIKELLKLDFEPKVFNTVRKNFRQTVNNTLKTHLLPMAEEQAQIILEQYDVARKYREQTLEQDAEEKIARNSRLQSEIKQKIDLYQTSIVSINEALKAMQIFEQLPVITESDITKQAEIVADADFVEIVE
notes: as for B1
For B2, the Km [6] was 350 ± 40 µM and the kcat [6] was 0.462 ± 0.0133 s⁻¹.

B3: SynDLP (Synechocystis sp. PCC 6803 substr. Kazusa; H552A/N555A/P553A/R554A) (protein)
chain: MSKIAPQCQNLREQVNQLIELLRQEPTLRSQQDTSIVETALGKALSPRFEIVFAGAFSAGKSMLINALLERELLYSAEGHATGTECHIEYANANEERVVLTFLSEAEIRQQALILAKYLNVNVGDLNINQPEAVKVVSQYCQKIIAEEGGENKSERAKQANALHLLLIGFEQNRERINTVQNSTYSMDQLNFSSLAEAAGYARRGANSAVLKRLDYFCNHSLLKDGNVLVDLPGIDAPVKEDAERAYRKIESPDTSAVICVLKPAAAGDMSAEETQLLERISKNHGIRDRVFYVFNRIDDTWYNTQLRQRLEGLIQSQFRDNSRVYKTSGLLGFYGSQVKQTNSSTRFGLDSIFATTIKGFDGEEETPQFVSEFNNYCANSGKLLSTAFRVSVNGYETSNENYVRILSEWGIPLVDQLIHDSGIESFRSGIGLYLAEEKYPELFATLANDLQPLCIALRQFYLENYRQLDSQPREIAAMKAQELTLLNQEMQNLGIEFKKYMSAQINDVVIGNDREFDQDFTKLKARMVARLDELLKTFSVMNAYKRATESAAAASTAPFIAVLVEALYYLANELEDAFIEAIHELVKNFFQRLGDRLRKVDCYHQVYRLVGNDGGIEQLLRRAEEDITKALVNEARTECDRYVRESPRFYDEGTFSIYQFRQTLQQTSQGYDAQAIVEAEPAIKELLKLDFEPKVFNTVRKNFRQTVNNTLKTHLLPMAEEQAQIILEQYDVARKYREQTLEQDAEEKIARNSRLQSEIKQKIDLYQTSIVSINECLKAMQIFEQLPVITESDITKQAEIVADADFVEIVE
notes: as for B1
Molecule B3 has a Km [6] of 330 ± 20 µM and a kcat [6] of 0.283 ± 0.00333 s⁻¹.
